For experiment [1], the target named is T1, G-Actin from rabbit muscle (Oryctolagus cuniculus, UniProt P68135).
T1 construct: G-Actin from rabbit muscle; purchased Sigma-Aldrich, St Louis, Mo; host or cells: rabbit muscle (tissue-derived)
Nature of the experiment: ELISA actin binding assay (solid-phase, immobilized actin). As to conditions: immobilized G-actin 500 ng/well. How it is done:
Peptides corresponding to a variety of amino acid sequences in the region of human RNASET2 comprising helix 5 and helix 6 were synthesized and assayed for actin binding in an ELISA actin binding assay.
Solid-phase ELISA for RNASET2 peptide binding to immobilized actin was performed as modified from Mejean 1987 (Biochem. J. 244: 571-577) and Mejean 1992 (Eur. J Biochem. 209: 555-562). All steps were conducted at 37° C. Immuno-96 Microwell™ solid plates (Thermo Fisher Scientific, MA) coated with 500 ng/well of G-Actin from rabbit muscle (Sigma-Aldrich, St Louis, Mo.) in 100 ul of 0.05 M carbonate buffer, pH 9.5 (Sigma-Aldrich, Mo), incubated for 1 h and washed with 250 ul/well Tris Buffered Saline (TBS) (Sigma-Aldrich). The wells were blocked with 3% bovine serum albumin (BSA, Sigma-Aldrich) in 200 ul/well TBS for another 1 hour and washed with 250 ul/well TBS. […] After an additional wash with 250 ul/well TBS, 1-Step Ultra TMB-ELISA (TMB-3,3′,5,5′ Tetramethylbenzidine) (Thermo-Scientific) was added (100 ul/well) and after 15-25 min of incubation, the reaction was read at A650 using Infinite F50-TECAN ELISA READER (TECAN, Austria). […]
A general note: An ELISA detects its analyte on a solid surface through an enzyme-linked reagent.

For experiment [2], the target named is T2, actin (Oryctolagus cuniculus, UniProt P68135). Put plainly: Actin binding solid phase assay. As to conditions: immobilized actin; 0-500 ng/100 μl well. How it is done: 96-well plates (MaxiSorp® flat-bottom 96-well plate, Fisher Scientific Inc., Fair Lawn, N.J.) were coated with 500 ng actin in 100 μl carbonate-bicarbonate buffer (pH 9.5) for 1 h at 37° C. The plate was washed once with TBS and then blocked with 3% BSA in 200 μl TBS buffer at 37° C., for 1 h. Wells were then washed once with 250 μl TBS. trT2-49, trT2-49m or each of the 29 peptides were added at 1:2 dilutions in 100 μl TBS, starting from 500 ng/well, incubated for 1 h at 37° C. and then washed three times with TBS containing 0.1% Tween-20 (TBST). Each well was then treated with 100 μl rabbit anti-trT2-49 diluted 1:500 in TBS and incubated for 1 h at 37° C. The wells were washed three times with TBST and then incubated with 100 μl goat anti-rabbit IgG-HRP (Jackson ImmunoResearch, West Grove, Pa.) diluted 1:10,000 in TBS, for 1 h at 37° C. Wells were then washed twice with TBST, and once with TBS before 100 μl substrate (1-step Ultra TMB-ELISA, Pierce, Fisher Scientific Inc.) were added. Absorbance at 655 nm was measured 10 min thereafter using a Power Wave 200 Microplate Scanning Spectrophotometer (Bio-Tek Instrument, Winooski, Vt.). Affinity was evaluated by double reciprocal plotting.

Experiment [3] concerns the target T2, actin. Put plainly: Surface plasmon resonance (BIAcore) of actin binding. Particulars: actin on CM5 chip, 25° C. The method, then: SPR was performed on a BIAcore 3000 instrument (BIAcore, Uppsala, Sweden). Actin was diluted in 100 mM CH3COONa pH 4.6 to a final concentration of 20 μg/ml (200 μl total) resulting in ˜1 ng immobilized actin on a CM5 BIAcore sensor chip (GE Healthcare Bio-Sciences AB) using the standard BIAcore amine coupling chemistry protocol. The CM5 chip allows four separate flow cells to be operated in the BIAcore 3000 instrument used in these experiments. Coupling is achieved by activating the surface of the sensor chips with equal volumes of 50 mM N-hydroxysuccimide (NHS)/200 mM Nethyl-N-(3-[…])-carboiimide (EDC) (BIAcore, AB, Uppsala, Sweden) to form activated carboxyl groups. An actin solution (15 μg/ml) was run over the chip for 5 min at a rate of 10 μl/min, allowing the amine groups on the protein to react with the activated esters. In the final stage of immobilization, the surface was blocked by 1M ethanol amine, pH 8.0. […] The association phase for protein or peptides binding to actin was followed for 4 min, and dissociation phases were monitored for 3 min. […] The response was monitored as a function of time (sensorgram) at 25° C. […]
On the technique in general: SPR reads the build-up and loss of mass on a sensor chip optically.

The test system of experiment [4] is chick Chorio-Allantoic Membrane (CAM). Put plainly: Ex ovo CAM angiogenesis assay. Type of experiment: in vivo, chicken. Particulars: 3 μg on paper disk daily for four days from day 8; compared to PBS control. The method, then: In this assay, in-vivo angiogenesis is assessed on live chick embryos grown in petri dishes. Fertilized eggs are cracked into a petri dish after a few (e.g. 3) days incubation at appropriate temperature (e.g. 37° C.) and humidity. In the following days, the embryos developed a vascular network, which can then easily be exposed to any treatment or combination of treatments, for example, via delivery onto absorbent disks placed on/about the developing vascular regions. Angiogenesis is scored by periodically (e.g. 1×/day, 2×/day, 1×/2 days, 1×/4 days, etc) counting the number of blood vessels around the disk.
Fertilized chicken eggs were incubated horizontally at 37° C. and humidity of 60-62% and cracked into Petri dishes at embryonic day 4. Incubation was continued under the same conditions. […] Treatment was given every day for four days, then, the number of blood vessels around the treated disks was counted.

For a further experiment, the system named is HUVEC. Put plainly: HUVEC tube formation assay on Matrigel. The format is cell-based, human. As to conditions: peptides at 2 μM, compared to Control. The method, then: FIGS. 6A-6D illustrate in-vitro inhibition of angiogenesis in the HUVEC model by T2 peptides. HUVEC cells plated on Matrigel™ were exposed to 2 μM of T2 peptides A103-Q159 (SEQ ID NO: 60), K108-K133 (SEQ ID NO: 57) or K108-L123 (SEQ ID NO: 67), in addition to 1 μg/ml of angiogenin or VEGF as the angiogenic agent, as indicated. Control wells received PBS. FIG. 6B-Results were assessed by imaging software, and quantified, and expressed relative to tube formation with angiogenin or VEGF alone (100%) Column 1=angiogenin, column 2=angiogenin+SEQ ID NO: 60, column 3=angiogenin+SEQ ID NO: 57, column 4=angiogenin+SEQ ID NO: 60, Column 5=VEGF, column 6=VEGF+SEQ ID NO: 60, column 7=VEGF+SEQ ID NO: 57, column 8=VEGF+SEQ ID NO: 60. FIGS. 6C and 6D illustrate the inhibitory effect of truncated human T2 polypeptide trT2-49m (SEQ ID NO: 129) on angiogenin and VEGF induced HUVEC tube formation. […]
HUVEC (CC-2519)(fresh or commercially provided) are maintained in M199 rrrediurn supplemented with 20% FCS, 1% glutamine, 1% antibiotic-antimycotic solution, ECGF, and heparin, plated in a 96-well plate (14×10^3 cells/well) previously coated with growth factor-depleted Matrigel™ (BD Biosciences), in M199 medium containing 5% FCS and 0.005% ECGF. […] Plates are incubated (overnight), photographed and the extent of tube formation (angiogenesis) assessed.

“Also recorded” adds a separate entry of the source.

B1: SEQ ID NO: 84: truncated RNASET2 polypeptide representing amino acids 49-232 of full length, native RNASET2 (protein)
chain: EGCNRSWPFNLEEIKDLLPEMRAYWPDVIHSFPNRSRFWKHEWEKHGTCAAQVDALNSQKKYFGRSLELYRELDLNSVLLKLGIKPSINYYQVADFKDALARVYGVIPKIQCLPPSQDEEVQTIGQIELCLTKQDQQLQNCTEPGEQPSPKQEVWLANGAAESRGLRVCEDGPVFYPPPKKTKH
Turning to B1, the “actin binding on ELISA” value in experiment [1] is “effectively binds actin”. Further, in the experiment with actin [2], the “actin binding in solid-phase assay” value is “effective and concentration-dependent binding of actin”. Further, the “Ka × 10^3” value in the experiment with actin [3] is given as 1.71 ×10^3 1/Ms. Besides, the “inhibition of angiogenesis (number of blood vessels around disk)” value in experiment [4] is reported as “effective in inhibiting angiogenesis”.

B2: SEQ ID NO: 129: truncated version of hRNASET2 (trT2-49) missing amino acids E120-V141, expressed in E. coli (protein)
chain: EGCNRSWPFNLEEIKDLLPEMRAYWPDVIHSFPNRSRFWKHEWEKHGTCAAQVDALNSQKKYFGRSLELYRADFKDALARVYGVIPKIQCLPPSQDEEVQTIGQIELCLTKQDQQLQNCTEPGEQPSPKQEVWLANGAAESRGLRVCEDGPVFYPPPKKTKH
As to B2, the “actin binding in solid-phase assay” value in the experiment with actin [2] is “bound actin in a concentration-dependent manner; also recorded: effective and concentration-dependent binding of actin”. In addition, in the experiment with actin [3], the “Ka × 10^3” value was 0.50 ×10^3 1/Ms. The “inhibition of VEGF-induced tube formation” value in the experiment with HUVEC (1 μg/ml VEGF) was found to be 35%. The “inhibition of angiogenin-induced tube formation” value in the experiment on HUVEC (1 μg/ml angiogenin) is 40%.
